According to patent publication US20240392004A1 (IMMUNOWAKE, published 2024):

How the values were obtained:
Assay in all cases: cell-based or functional assay
[1] = target: T1, human TIGIT on HEK-Blue reporter cells (human, UniProt Q495A1 22-244)
T1 sequence (looked up): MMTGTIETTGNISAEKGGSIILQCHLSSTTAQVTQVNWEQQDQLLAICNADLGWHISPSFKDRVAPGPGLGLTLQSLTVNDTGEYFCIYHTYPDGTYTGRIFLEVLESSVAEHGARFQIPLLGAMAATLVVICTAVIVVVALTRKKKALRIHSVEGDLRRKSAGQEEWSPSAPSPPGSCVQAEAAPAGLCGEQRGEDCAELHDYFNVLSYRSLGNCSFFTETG

[2] = target: human IL-12 receptor complex (IL-12Rβ1 and IL-12Rβ2) (human, UniProt P42701 24-662; Q99665 24-862)
Sequence of human IL-12 receptor complex (IL-12Rβ1 and IL-12Rβ2) (Q99665 24-862, chain 2 of 2, other chains not shown): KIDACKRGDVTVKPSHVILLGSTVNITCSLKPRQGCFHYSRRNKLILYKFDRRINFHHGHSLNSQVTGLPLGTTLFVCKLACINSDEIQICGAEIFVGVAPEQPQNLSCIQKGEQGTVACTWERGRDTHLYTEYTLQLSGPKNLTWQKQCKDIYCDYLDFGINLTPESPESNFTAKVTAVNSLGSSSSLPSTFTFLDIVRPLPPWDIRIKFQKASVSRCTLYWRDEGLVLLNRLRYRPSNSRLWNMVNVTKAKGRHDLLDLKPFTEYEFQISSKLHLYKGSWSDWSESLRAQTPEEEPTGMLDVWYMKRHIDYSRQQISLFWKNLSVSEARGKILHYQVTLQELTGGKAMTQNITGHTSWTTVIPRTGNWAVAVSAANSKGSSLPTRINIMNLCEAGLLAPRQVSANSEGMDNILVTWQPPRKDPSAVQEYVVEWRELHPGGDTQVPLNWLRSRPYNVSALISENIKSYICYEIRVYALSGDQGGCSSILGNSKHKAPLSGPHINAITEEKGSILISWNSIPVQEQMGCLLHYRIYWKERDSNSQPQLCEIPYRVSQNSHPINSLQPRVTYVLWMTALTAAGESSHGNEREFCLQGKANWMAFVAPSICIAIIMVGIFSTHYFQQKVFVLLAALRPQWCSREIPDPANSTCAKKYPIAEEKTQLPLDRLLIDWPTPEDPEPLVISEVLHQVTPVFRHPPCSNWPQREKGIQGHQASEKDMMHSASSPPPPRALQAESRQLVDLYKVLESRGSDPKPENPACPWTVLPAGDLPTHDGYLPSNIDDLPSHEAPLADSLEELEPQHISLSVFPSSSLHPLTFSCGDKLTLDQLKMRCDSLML

[3] = target: T2, human IL-2 receptor (IL-2Rα, IL-2Rβ, IL-2Rγ) (human, UniProt P01589 22-272; P14784 27-551; P31785 23-369)
T2 sequence (looked up) 1: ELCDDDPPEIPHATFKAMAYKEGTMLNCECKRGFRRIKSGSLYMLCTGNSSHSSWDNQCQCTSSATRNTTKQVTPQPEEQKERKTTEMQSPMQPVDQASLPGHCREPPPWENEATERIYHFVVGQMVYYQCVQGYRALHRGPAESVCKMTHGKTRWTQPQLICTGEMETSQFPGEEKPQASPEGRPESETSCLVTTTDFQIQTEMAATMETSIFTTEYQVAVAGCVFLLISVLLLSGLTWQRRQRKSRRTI
T2 sequence (looked up) 2: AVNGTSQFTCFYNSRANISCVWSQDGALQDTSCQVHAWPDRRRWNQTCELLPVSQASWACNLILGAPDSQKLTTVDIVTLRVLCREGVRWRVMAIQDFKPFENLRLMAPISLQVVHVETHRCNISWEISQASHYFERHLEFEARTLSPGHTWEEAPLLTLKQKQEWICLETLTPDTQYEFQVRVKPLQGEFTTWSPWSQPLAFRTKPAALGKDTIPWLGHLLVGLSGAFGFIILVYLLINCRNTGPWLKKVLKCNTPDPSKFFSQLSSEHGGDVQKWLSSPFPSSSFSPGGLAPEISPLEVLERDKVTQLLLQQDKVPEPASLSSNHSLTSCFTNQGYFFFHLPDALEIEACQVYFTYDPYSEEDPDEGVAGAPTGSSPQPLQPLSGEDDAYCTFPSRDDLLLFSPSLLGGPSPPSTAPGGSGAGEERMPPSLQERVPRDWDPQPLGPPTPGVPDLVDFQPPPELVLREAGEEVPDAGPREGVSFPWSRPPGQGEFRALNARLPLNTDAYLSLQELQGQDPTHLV
T2 sequence (looked up) 3: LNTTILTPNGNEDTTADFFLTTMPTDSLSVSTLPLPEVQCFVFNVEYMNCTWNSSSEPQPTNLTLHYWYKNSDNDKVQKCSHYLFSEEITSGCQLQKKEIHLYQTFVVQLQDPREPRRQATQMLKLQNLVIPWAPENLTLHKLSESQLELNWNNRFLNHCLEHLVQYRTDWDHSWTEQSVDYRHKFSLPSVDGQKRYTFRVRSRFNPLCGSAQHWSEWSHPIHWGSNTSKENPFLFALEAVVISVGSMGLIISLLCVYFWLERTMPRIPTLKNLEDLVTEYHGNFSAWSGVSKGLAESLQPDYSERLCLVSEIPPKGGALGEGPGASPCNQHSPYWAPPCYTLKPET

B1: IL-2(L18R/Q22E/R38D/K43E/E61R)/CD155-Fc/IL-12(E59A/F60A) (Fc fusion)
chain 1: WPPPGTGDVVVQAPTQVPGFLGDSVTLPCYLQVPNMEVTHVSQLTWARHGESGSMAVFHQTQGPSYSESKRLEFVAARLGAELRNASLRMFGLRVEDEGNYTCLFVTFPQGSRSVDIWLRVLAKPQNTAEVQKVQLTGEPVPMARCVSTGGRPPAQITWHSDLGGMPNTSQVPGFLSGTVTVTSLWILVPSSQVDGKNVTCKVEHESFEKPQLLTVNLTVYYPPEVSISGYDNNWYLGQNEATLTCDARSNPEPTGYNWSTTMGPLPPFAVAQGAQLLIRPVDKPINTTLICNVTNALGARQAELTVQVKEGPPSEHSGISRNGGGGSGGGDKTHTCPPCPAPEDEGGPSVFLFPPKPKDTLMISRTPEVTCVVVDVSHEDPEVKFNWYVDGVEVHNAKTKPREEQYNSTYRVVSVLTVLHQDWLNGKEYKCKVSNKALPAPIEKTISKAKGQPREPQVYVYPPSREEMTKNQVSLTCLVKGFYPSDIAVEWESNGQPENNYKTTPPVLDEDGSFALVSKLTVDKSRWQQGNVFSCSVMHEALHNHYTQKSLSLSPGKGGGGSGGGIWELKKDVYVVELDWYPDAPGEMVVLTCDTPEEDGITWTLDQSSEVLGSGKTLTIQVKAAGDAGQYTCHKGGEVLSHSLLLLHKKEDGIWSTDILKDQKEPKNKTFLRCEAKNYSGRFTCWWLTTISTDLTFSVKSSRGSSDPQGVTCGAATLSAERVRGDNKEYEYSVECQEDSACPAAEESLPIEVMVDAVHKLKYENYTSSFFIRDIIKPDPPKNLQLKPLKNSRQVEVSWEYPDTWSTPHSYFSLTFCVQVQGKSKREKKDRVFTDKTSATVICRKNASISVRAQDRYYSSSWSEWASVPCSGGGGSGGGSGGGGSRNLPVATPDPGMFPCLHHSQNLLRAVSNMLQKARQTLEFYPCTSEEIDHEDITKDKTSTVEACLPLELTKNESCLNSRETSFITNGSCLASRKTSFMMALCLSSIYEDLKMYQVEFKTMNAKLLMDPKRQIFLDQNMLAVIDELMQALNFNSETVPQKSSLEEPDFYKTKIKLCILLHAFRIRAVTIDRVMSYLNAS
chain 2: WPPPGTGDVVVQAPTQVPGFLGDSVTLPCYLQVPNMEVTHVSQLTWARHGESGSMAVFHQTQGPSYSESKRLEFVAARLGAELRNASLRMFGLRVEDEGNYTCLFVTFPQGSRSVDIWLRVLAKPQNTAEVQKVQLTGEPVPMARCVSTGGRPPAQITWHSDLGGMPNTSQVPGFLSGTVTVTSLWILVPSSQVDGKNVTCKVEHESFEKPQLLTVNLTVYYPPEVSISGYDNNWYLGQNEATLTCDARSNPEPTGYNWSTTMGPLPPFAVAQGAQLLIRPVDKPINTTLICNVTNALGARQAELTVQVKEGPPSEHSGISRNGGGSGAPTSSSTKKTQLQLEHLRLDLEMILNGINNYKNPKLTDMLTFEFYMPKKATELKHLQCLERELKPLEEVLNLAQSKNFHLRPRDLISNINVIVLELKGSETTFMCEYADETATIVEFLNRWITFCQSIISTLTGGGGSGGGDKTHTCPPCPAPEKKGGPSVFLFPPKPKDTLMISRTPEVTCVVVDVSHEDPEVKFNWYVDGVEVHNAKTKPREEQYNSTYRVVSVLTVLHQDWLNGKEYKCKVSNKALPAPIEKTISKAKGQPREPQVYVLPPSREEMTKNQVSLLCLVKGFYPSDIAVEWESNGQPENRYMTWPPVLDSDGSFFLYSKLTVDKSRWQQGNVFSCSVMHEALHNHYTQKSLSLSPGK
IL-2 signal transduction, HEK-IL-2-TIGIT [1]: 81% | IL-12 signal transduction, HEK-IL-12-TIGIT [1]: 42% | IL-12 signal transduction, HEK-IL-12 [2]: 1% | IL-2 signal transduction, HEK-IL-2 [3]: 15%
